Laboratory results: patent US7906310B2, “Proteases” (Novozymes A/S, priority 2003, dated 2011)

B1: Protease 18: protease from Nocardiopsis dassonvillei subsp. dassonvillei DSM 43235, amino acids 1-188 of SEQ ID NO: 12 (protein)
chain: APAPVPQTPVADDSAASMTEALKRDLDLTSAEAEELLSAQEAAIETDAEATEAAGEAYGGSLFDTETLELTVLVTDASAVEAVEATGAQATVVSHGTEGLTEVVEDLNGAEVPESVLGWYPDVESDTVVVEVLEGSDADVAALLADAGVDSSSVRVEEAEEAPQVYADIIGGLAYYMGGRCSVGFAAT
modifications: Nocardiopsis dassonvillei subspecies dassonvillei
B2: Protease 08: protease from Nocardiopsis alba DSM 15647, amino acids 1-188 of SEQ ID NO: 10 (protein, listed as Nocardiopsis alba)
chain: ATGPLPQSPTPDEAEATTMVEALQRDLGLSPSQADELLEAQAESFEIDEAATAAAADSYGGSIFDTDSLTLTVLVTDASAVEAVEAAGAEAKVVSHGMEGLEEIVADLNAADAQPGVVGWYPDIHSDTVVLEVLEGSGADVDSLLADAGVDTADVKVESTTEQPELYADIIGGLAYTMGGRCSVGFAA
B3: Metarhizium protease: known protease derived from Metarhizium anisopliae, amino acids 1-188 of SEQ ID NO: 4 (protein, listed as Metarhizium anisopliae)
chain: MELTKFLALLAVILPVAYGAPTQAASLHPQILEAMKRDLGLNAEQATVRVAREIHATDVIEQLRSSVAFAGAWIDADVLYIGITDQALADEVTAAGATPIVMTNSLSKLEKAKEDLDKIFIGRANTLETSSDTSSGIASYFVDVAANKLVIEALADSHGHAEQLAAQVGLTSEFEVRTVETMPTTMAT
B4: Protease 11: protease from Nocardiopsis prasina DSM 15648, amino acids 1-188 of SEQ ID NO: 6 (protein, listed as Nocardiopsis prasina)
chain: ATGPLPQSPTPEADAVSMQEALQRDLGLTPLEADELLAAQDTAFEVDEAAAAAAGDAYGGSVFDTETLELTVLVTDAASVEAVEATGAGTELVSYGIEGLDEIIQDLNAADAVPGVVGWYPDVAGDTVVLEVLEGSGADVSGLLADAGVDASAVEVTSSAQPELYADIIGGLAYTMGGRCSVGFAATN
B5: Protease 10: known protease derived from Nocardiopsis sp. NRRL 18262, amino acids 1-188 of SEQ ID NO: 2 (protein)
chain: ADIIGGLAYTMGGRCSVGFAATNAAGQPGFVTAGHCGRVGTQVTIGNGRGVFEQSVFPGNDAAFVRGTSNFTLTNLVSRYNTGGYATVAGHNQAPIGSSVCRSGSTTGWHCGTIQARGQSVSYPEGTVTNMTRTTVCAEPGDSGGSYISGTQAQGVTSGGSGNCRTGGTTFYQEVTPMVNSWGVRLRT
B6: Brachysporiella protease: protease from Brachysporiella gayana CGMCC 0865, amino acids 1-186 of SEQ ID NO: 14 (protein, listed as Brachysporiella gayana)
chain: MELTSLIAALAVILPIAYGVPMDATTNLSPKVLAAMKRDLGLDAREATARVTFERRAGDVIEELRSSLGDSFAGAWVTDGKVINIGVTDQALVSKVKEAGAEPMVMKNSLGKLQEAKKKLDQIIKEKPKTLSTSGKPGIATYYVDIETNKLIITALSTSITQAEDLAKEVGLSESEFEVRKTEKMP
B7: Protease 35: protease from Nocardiopsis prasina DSM 15649, amino acids 1-188 of SEQ ID NO: 8 (protein, listed as Nocardiopsis prasina)
chain: ATGPLPQSPTPEADAVSMQEALQRDLGLTPLEADELLAAQDTAFEVDEAAAEAAGDAYGGSVFDTETLELTVLVTDSAAVEAVEATGAGTELVSYGITGLDEIVEELNAADAVPGVVGWYPDVAGDTVVLEVLEGSGADVGGLLADAGVDASAVEVTTTEQPELYADIIGGLAYTMGGRCSVGFAATN

Assays:
[1] = Stability assay: residual activity after incubation with 1 mM inhibitor, measured by pNA assay; type: physicochemical; set-up: key to Residual Enzyme Activity: fraction of activity at 0 h incubation (0.80 = 80%); conditions: for Stability in the presence of 1 mM Cu2+ / Residual Enzyme Activity: 25° C.; for Residual Enzyme Activity: 1 mM Cu2+, pH 7, 0.1% K-sorbate, relative to 0 hours; for Feature i): residual activity at least 0.80 after 164 hours with 1 mM Cu2+: pH 7, 25° C., 0.1% K-Sorbate
Procedure: Feature i) is determined as residual (=rest, or remaining) enzyme activity after having incubated the enzyme for 164 hours, at pH 7 and 25° C., in assay buffer supplemented with 0.1% K-Sorbate (for preservation purposes), and in the presence of 1 mM Cu^2+. The residual activity is measured relative to the activity after 0 hours of incubation. For the protease of the invention, the residual activity is at least 0.80 (=80%).
(§1) Protease activity is measured using the substrate Suc-AAPF-pNA, in assay buffer at pH 7.0 and 25° C. For more details, please refer to the pNA assay described in Example 4, which also describes in detail the determination according to i) and ii).
(§2) 20 ul (microliters) protease (diluted in 0.01% Triton X-100) was placed in a well of a micro titer plate. The assay was started by adding 200 ul pNA substrate (50 mg dissolved in 1.0 ml DMSO and further diluted 100× with assay buffer). The increase in OD405 was monitored as a measure of the protease activity.
The protease was diluted to approx. 1 mg/ml (see below) in assay buffer with 0.1% (w/v) K-sorbate (potassium salt of sorbic acid) and 1 mM inhibitor. The mixture was incubated at 25° C.). At intervals, a sample was withdrawn from the incubation (after thorough mixing) and frozen. After dilution in assay buffer, residual activity was measured using the pNA assay. For the 1 mM inhibitor additions, the incubation was diluted in assay buffer with 5 mM EDTA in order to see a pure stability effect.
Protease concentrations were estimated from the theoretical molar extinction coefficients, E280 (1 M), which can be calculated from the amino acid composition using the formula: E280 (1 M)=5690*NTrp+1280*NTyr+120*NCys, where NTrp, NTyr, and NCys are the number of Trp, Tyr, and Cys amino acid residues in the protease (Gill, S. C., von Hippel, P. H., Analytical Biochemistry 182: 319-326 (1989)) and the molecular weight, Mw, of the protease calculated from the amino acid sequence. From an A280 measurement of a pure protease sample (more than 95% pure according to Example 2), the protease concentration was calculated as: Conc (mg/ml)=(A280*MW)/E280 (1 M)).
The stability of the various proteases in the presence of the various inhibitors in a concentration of 1 mM was tested as described above. The only inhibitor that had some effect on the stability of some of the proteases was Cu^2+. However, the effect of this inhibitor was not the same on all the proteases: See the results in Table 2 below showing that Protease 18 and the Brachysporiella proteases are indeed stable in the presence of 1 mM Cu^2+, while the other proteases are not.

[2] = pNA assay: protease activity with 1 mM Cu2+ relative to control without Cu2+; type: biochemical; conditions: enzyme 1 mg/l, Suc-AAPF-pNA, pH 7, 25° C.; for Enzyme Activity, +1 mM Cu^2+: 1 mM Cu2+; for Enzyme Activity, Control (no Cu^2+): no Cu2+; for Relative Activity: activity with 1 mM Cu2+ relative to control without Cu2+
Procedure: as §1
Feature ii) is determined as the enzyme activity in the presence of 1 mM Cu^2+, relative to the activity of the same enzyme under the same conditions, except for the presence of Cu^2+. For the protease of the invention, this relative activity is at least 0.66 (=66%). For the purposes of feature ii), enzyme (protease) activity is measured as described above.
pNA substrate: Suc-AAPF-pNA (Bachem L-1400) or Boc-VLGR-pNA (Bachem L-1205). Temperature: 25° C.
as §2
First, the effect of various Cu^2+ concentrations was tested with an enzyme dosage of 1 mg/l. At least in the range of 0 to 1 mM Cu^2+ there seemed to be a linear relationship between inhibition and concentration of Cu^2+, the inhibition manifesting itself as a decrease in the enzyme activity with increasing concentrations of Cu^2+ (the enzyme activity being measured as average OD405 increase/time from the linear part of dose/response curves).

Molecule | Stability in the presence of 1 mM Cu2+ [1] | Residual Enzyme Activity ([1]; incubation time 0 hours) | Residual Enzyme Activity ([1]; incubation time 3.1 hours) | Residual Enzyme Activity ([1]; incubation time 18.6 hours) | Residual Enzyme Activity ([1]; incubation time 44.0 hours) | Residual Enzyme Activity ([1]; incubation time 116.0 hours) | Residual Enzyme Activity ([1]; incubation time 164.0 hours) | Residual Enzyme Activity ([1]; incubation time 188.6 hours) | Feature i): residual activity at least 0.80 after 164 hours with 1 mM Cu2+ [1] | Enzyme Activity, +1 mM Cu^2+ [2] | Enzyme Activity, Control (no Cu^2+) [2] | Relative Activity [2]
B1 | stable | 1.000 | 0.985 | 1.008 | 1.003 | 0.982 | 1.030 | 0.993 | fulfil feature i) | 158.0 mOD405/min | 193.1 mOD405/min | –
B2 | – | 1.000 | 0.936 | 0.867 | 0.842 | 0.767 | 0.721 | 0.703 | – | 174.5 mOD405/min | 216.0 mOD405/min | –
B3 | – | 1.000 | 0.979 | 0.939 | 0.891 | 0.760 | 0.651 | 0.627 | – | 72.4 mOD405/min | 118.2 mOD405/min | 0.612
B4 | – | 1.000 | 0.930 | 1.032 | 0.930 | 0.737 | 0.616 | 0.581 | – | 92.3 mOD405/min | 133.6 mOD405/min | 0.691
B5 | – | 1.000 | 0.952 | 0.868 | 0.874 | 0.837 | 0.752 | 0.723 | – | 80.3 mOD405/min | 122.2 mOD405/min | 0.657
B6 | stable | 1.000 | 1.022 | 1.073 | 1.057 | 1.029 | 1.053 | 0.984 | fulfil feature i) | 50.5 mOD405/min | 72.6 mOD405/min | 0.695
B7 | – | 1.000 | 0.960 | 0.918 | 0.852 | 0.807 | 0.745 | 0.733 | – | 75.0 mOD405/min | 109.2 mOD405/min | 0.687
